Results on one molecule are retold here after patent publication US20240002500A1 (GUANGDONG FAPON BIOPHARMA, published 2024).

This assay concerns the target T1, hTIGIT-hFc (human, UniProt Q495A1 22-141).
T1 construct: also called antigen protein hTIGIT-hFc; human TIGIT recombinant protein carrying a human Fc tag; not shown: human Fc tag
T1 sequence (looked up): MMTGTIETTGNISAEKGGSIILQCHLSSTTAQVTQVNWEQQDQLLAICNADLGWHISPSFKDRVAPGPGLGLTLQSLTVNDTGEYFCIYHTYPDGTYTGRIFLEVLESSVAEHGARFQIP
Briefly: FACS blocking: hTIGIT-hFc bound on CHO-hCD112 cells, then antibody, APC anti-human IgG Fc; blocked partner CD112; unit as printed on the x axis, Log(uM); the method's top concentration of 20 µg/mL and the nM values of Fig. 5B speak for nM. As for the experimental part:
The CHO-engineered cell CHO-hCD112 cells recombinantly expressing full-length human CD112 were counted; centrifugated at 300 g for 5 min; resuspended with an FCM buffer; and cell density was adjusted to 4E+06 cell/mL for later use. […] According to an experimental design, in each well, 50 μL of the antigen protein and 50 μL of the cell (the volume of each cell added into a 96-well V-shaped plate being 2E+05 cell/well) were respectively added in the 96-well V-shaped plate; and incubation was performed in dark on ice for 30 min. Centrifugation (300 g/5 min) was performed; supernatant was discarded; 200 μL of the FCM buffer was added for washing once; centrifugation (300 g/5 min) was performed; and the supernatant was discarded. The antibody was added to the 96-well V-shaped plate (in 100 μL/well); and incubation was performed in dark on ice for 30 min. Centrifugation (300 g/5 min) was performed; supernatant was discarded; 200 μL of the FCM buffer was added for washing once; centrifugation (300 g/5 min) was performed; and the supernatant was discarded. Secondary antibodies (APC anti-human IgG Fc, 1:500 dilution) were added to the 96-well V-shaped plate (in 100 μL/well); and incubation was performed in dark on ice for 30 min. […]

What is called IC50 is the midpoint of a concentration-inhibition curve. Low readings indicate greater potency in that assay, high ones weaker potency in that assay.

B1: 14Tigit-1-1 mouse monoclonal antibody (antibody, V domains shown)
VH: DVQLQESGPGLVKPSQSLSLTCTVTGYSITSDYAWNWIRQFPGNKLEWMGYISYSGSTRSNPSLKSRISITRDTSKNQFFLQLNSMTAEDTATYYCGGWEVRNYYAMDYWGQGTSVTVSS
VL: DIVMTQSHKFMSTSVGDRVSITCKASQHVSTAVAWYQQKPGQSPKLLIYSASYRYTGVPDRFTGSGSGTDFTFTISSVQAEDLAVYYCQQHYNTPWTFGGGTKLEIKR
notes: Mouse monoclonal antibody from hybridoma
With B1, half-maximal inhibition (IC50) required 2600 nM.
